From patent US6951917

Target: HLA-DR on 1088-EBV cells (autologous EBV-B cells of patient 1088) (human)
Experiment: cell-based or functional assay

inhibition of GM-CSF secretion by CD4+ TIL 1088 stimulated with 1088-EBV pulsed with autologous melanoma lysate (mAb 23 ug/ml): 96%
B1: monoclonal antibody L243 (anti-HLA-DR; IgG2a) (antibody, from another filing, V domains shown)
VH: QIQLVQSGPELKKPGETVKISCKASGFTFTNYGMNWVKQAPGKGLKWMGWINTYTREPTYADDFKGRFAFSLETSASTAYLQINNLKNEDTAKYFCARDITAVVPTGFDYWGQGTTLTVSS
VL: DIQMTQSPASLSVSVGETVTITCRASENIYSNLAWYRQKQGKSPQLLVFAASNLADGVPSRFSGSGSGTQYSLKINSLQSEDFGDYYCQHFWTTPWAFGGGTNLEIKR
